T1: human FcγRIIβ (human, UniProt P31994 46-217, limits assumed)
T1 construct: also called FcγRIIb; R2b
T1 sequence (looked up): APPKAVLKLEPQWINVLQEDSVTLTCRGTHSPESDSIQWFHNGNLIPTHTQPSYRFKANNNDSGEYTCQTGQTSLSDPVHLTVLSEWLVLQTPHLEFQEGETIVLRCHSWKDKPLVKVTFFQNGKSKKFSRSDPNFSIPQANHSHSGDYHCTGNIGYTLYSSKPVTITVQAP

T2: huFcγRIIβ (human, UniProt P31994 46-217)
T2 construct: also called huR2b; human FcγRIIβ (soluble antigen)
T2 sequence (looked up): T1 sequence (looked up)

T3: huFcγRIIα (R131) (human, UniProt P12318 36-218)
T3 construct: R131 allotype; also called human FcγRIIα R131 (soluble antigen)
T3 sequence (looked up): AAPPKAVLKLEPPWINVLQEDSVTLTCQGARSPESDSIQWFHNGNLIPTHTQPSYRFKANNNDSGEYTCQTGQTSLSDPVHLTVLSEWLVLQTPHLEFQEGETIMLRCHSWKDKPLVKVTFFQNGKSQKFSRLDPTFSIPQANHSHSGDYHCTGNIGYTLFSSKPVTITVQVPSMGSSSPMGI

B1: TA322 (antibody, human IgG1, kappa)
heavy: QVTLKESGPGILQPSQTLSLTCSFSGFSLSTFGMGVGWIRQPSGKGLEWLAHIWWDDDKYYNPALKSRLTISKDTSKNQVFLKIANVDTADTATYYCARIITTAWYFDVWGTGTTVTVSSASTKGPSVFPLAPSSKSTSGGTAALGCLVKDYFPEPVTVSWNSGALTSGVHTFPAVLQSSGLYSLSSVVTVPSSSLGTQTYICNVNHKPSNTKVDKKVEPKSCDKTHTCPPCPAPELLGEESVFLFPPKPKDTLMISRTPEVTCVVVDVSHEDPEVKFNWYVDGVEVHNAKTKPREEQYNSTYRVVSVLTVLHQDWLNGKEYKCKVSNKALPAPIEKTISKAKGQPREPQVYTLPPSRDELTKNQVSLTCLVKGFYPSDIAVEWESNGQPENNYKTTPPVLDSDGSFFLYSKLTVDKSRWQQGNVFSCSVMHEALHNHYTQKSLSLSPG
light: QAVVTQESALTTSPGETVTLTCRSSTGAVTTSNYANWVQEKPDHLFTGLIGGTNNRAPGVPARFSGSLIGDKAALTITGAQTEDEAIYFCALWYSNHFIFGSGTKVTVLRTVAAPSVFIFPPSDEQLKSGTASVVCLLNNFYPREAKVQWKVDNALQSGNSQESVTEQDSKDSTYSLSSTLTLSKADYEKHKVYACEVTHQGLSSPVTKSFNRGEC
B2: TA359 (antibody, human IgG1, lambda)
heavy: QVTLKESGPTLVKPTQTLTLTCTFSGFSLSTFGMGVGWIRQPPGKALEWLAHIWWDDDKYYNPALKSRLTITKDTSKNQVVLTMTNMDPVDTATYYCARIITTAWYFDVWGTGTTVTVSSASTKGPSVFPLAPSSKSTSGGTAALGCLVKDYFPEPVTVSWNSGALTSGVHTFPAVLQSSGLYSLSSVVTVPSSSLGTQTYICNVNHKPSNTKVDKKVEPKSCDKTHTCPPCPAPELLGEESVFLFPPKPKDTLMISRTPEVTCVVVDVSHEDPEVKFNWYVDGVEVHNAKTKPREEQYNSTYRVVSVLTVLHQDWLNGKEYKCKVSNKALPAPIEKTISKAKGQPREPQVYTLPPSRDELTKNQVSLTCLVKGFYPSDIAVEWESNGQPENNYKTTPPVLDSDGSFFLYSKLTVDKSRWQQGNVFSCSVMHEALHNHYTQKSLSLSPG
light: QAVVTQEPSLTVSPGGTVTLTCRSSTGAVTTSNYANWVQQKPGQAFRGLIGGTNNRAPGVPDRFSGSILGNKAALTITGAQADDESDYYCALWYSNHFIFGSGTKVTVLGQPKAAPSVTLFPPSSEELQANKATLVCLISDFYPGAVTVAWKADSSPVKAGVETTTPSKQSNNKYAASSYLSLTPEQWKSHRSYSCQVTHEGSTVEKTVAPTECS
B3: ARB40 (antibody, human IgG1, kappa)
heavy: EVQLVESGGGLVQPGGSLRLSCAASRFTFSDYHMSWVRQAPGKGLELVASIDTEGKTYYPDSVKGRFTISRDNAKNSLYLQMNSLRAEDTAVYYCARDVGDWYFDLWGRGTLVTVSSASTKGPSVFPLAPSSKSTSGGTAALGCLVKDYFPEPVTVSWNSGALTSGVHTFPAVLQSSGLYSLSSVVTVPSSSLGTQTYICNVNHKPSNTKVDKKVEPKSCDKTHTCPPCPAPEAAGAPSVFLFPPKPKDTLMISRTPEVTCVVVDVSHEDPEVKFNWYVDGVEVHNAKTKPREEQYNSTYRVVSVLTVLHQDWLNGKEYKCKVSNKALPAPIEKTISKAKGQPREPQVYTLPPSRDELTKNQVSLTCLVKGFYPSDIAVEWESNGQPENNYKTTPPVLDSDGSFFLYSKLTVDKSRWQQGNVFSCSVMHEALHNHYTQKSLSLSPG
light: DIVMTQSPLSLPVTPGEPASISCRSSRSLVHGSGDNYLHWYLQKPGQSPQLLIYMASNRAPGVPDRFSGSGSGTDFTLKISRVEAEDVGVYYCMQALRAPFSFGGGTKVEIKRTVAAPSVFIFPPSDEQLKSGTASVVCLLNNFYPREAKVQWKVDNALQSGNSQESVTEQDSKDSTYSLSSTLTLSKADYEKHKVYACEVTHQGLSSPVTKSFNRGEC
notes: copies: 2 + 2
B4: ARB49 (antibody, human IgG1, kappa)
heavy: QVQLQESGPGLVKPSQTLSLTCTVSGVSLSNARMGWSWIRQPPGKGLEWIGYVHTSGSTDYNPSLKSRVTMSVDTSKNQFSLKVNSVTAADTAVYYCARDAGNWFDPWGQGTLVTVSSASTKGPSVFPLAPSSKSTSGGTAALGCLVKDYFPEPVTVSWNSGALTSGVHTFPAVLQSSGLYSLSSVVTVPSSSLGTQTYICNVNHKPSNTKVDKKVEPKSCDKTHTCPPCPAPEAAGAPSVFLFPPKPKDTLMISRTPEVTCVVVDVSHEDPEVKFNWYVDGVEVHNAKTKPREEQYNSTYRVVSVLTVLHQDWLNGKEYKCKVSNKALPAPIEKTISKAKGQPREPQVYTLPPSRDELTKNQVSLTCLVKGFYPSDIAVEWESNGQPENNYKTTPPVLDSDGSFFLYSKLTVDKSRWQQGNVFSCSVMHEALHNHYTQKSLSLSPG
light: EIVMTQSPATLSLSPGERATLSCRASQSLSSSHLAWYQQKPGQAPRLLIYDASIRVPGIPARFSGSGSGTDFTLTISSLEPEDFAVYYCQQYAVPPITFGGGTKVEIKRTVAAPSVFIFPPSDEQLKSGTASVVCLLNNFYPREAKVQWKVDNALQSGNSQESVTEQDSKDSTYSLSSTLTLSKADYEKHKVYACEVTHQGLSSPVTKSFNRGEC
notes: copies: 2 + 2
B5: TA26 (bispecific antibody, human IgG1, kappa)
heavy: not shown
light: DIQMTQSPSSLSASVGDRVTITCQASQSPNNLLAWYQQKPGKAPKLLIYGASDLPSGVPSRFSGSGSGTDFTLTISSLQPEDFATYYCQNNYYVGPVSYAFGGGTKVEIKRTVAAPSVFIFPPSDEQLKSGTASVVCLLNNFYPREAKVQWKVDNALQSGNSQESVTEQDSKDSTYSLSSTLTLSKADYEKHKVYACEVTHQGLSSPVTKSFNRGEC
B6: TA36 (bispecific antibody, human IgG1, kappa)
heavy: not shown
light: B5 light
B7: TA25 (bispecific antibody, human IgG1, kappa)
heavy: not shown
light: B5 light
B8: TA28 (bispecific antibody, human IgG1, kappa)
heavy: not shown
light: B5 light
B9: TA39 (bispecific antibody, human IgG1, kappa)
heavy: not shown
light: B5 light
B10: TA28 (bispecific antibody, human IgG1, kappa)
heavy: not shown
light: B5 light
B11: TA36 (bispecific antibody, human IgG1, kappa)
heavy: not shown
light: B5 light
B12: TA26 (bispecific antibody, human IgG1, kappa)
heavy: not shown
light: B5 light
B13: TA39 (bispecific antibody, human IgG1, kappa)
heavy: not shown
light: B5 light
B14: TA25 (bispecific antibody, human IgG1, kappa)
heavy: not shown
light: B5 light
B15: TA30 (bispecific antibody, human IgG1, kappa)
heavy: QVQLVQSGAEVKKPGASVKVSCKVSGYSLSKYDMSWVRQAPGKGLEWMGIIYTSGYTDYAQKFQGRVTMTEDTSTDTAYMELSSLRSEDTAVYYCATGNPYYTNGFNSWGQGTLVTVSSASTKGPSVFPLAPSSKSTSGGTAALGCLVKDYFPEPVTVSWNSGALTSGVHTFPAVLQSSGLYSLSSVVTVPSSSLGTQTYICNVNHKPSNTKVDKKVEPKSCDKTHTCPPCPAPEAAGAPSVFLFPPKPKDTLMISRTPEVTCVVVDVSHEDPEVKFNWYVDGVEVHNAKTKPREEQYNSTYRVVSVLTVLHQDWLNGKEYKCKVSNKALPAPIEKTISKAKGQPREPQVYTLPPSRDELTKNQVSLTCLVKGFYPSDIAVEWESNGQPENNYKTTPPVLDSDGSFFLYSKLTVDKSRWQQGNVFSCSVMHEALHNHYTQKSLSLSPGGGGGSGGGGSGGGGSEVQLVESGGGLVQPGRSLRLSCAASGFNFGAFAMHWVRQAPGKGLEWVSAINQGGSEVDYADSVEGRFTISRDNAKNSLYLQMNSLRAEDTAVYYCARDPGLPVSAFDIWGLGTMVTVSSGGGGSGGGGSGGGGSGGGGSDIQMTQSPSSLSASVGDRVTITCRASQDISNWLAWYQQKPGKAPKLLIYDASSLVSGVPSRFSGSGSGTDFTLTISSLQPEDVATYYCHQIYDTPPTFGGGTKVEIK
light: B5 light

Biological target: FcγRI
Assay: Fc receptor affinity, Table 29 (method for Fc receptors not told in Example 43)

Chain of FcγRI (P12314 16-292): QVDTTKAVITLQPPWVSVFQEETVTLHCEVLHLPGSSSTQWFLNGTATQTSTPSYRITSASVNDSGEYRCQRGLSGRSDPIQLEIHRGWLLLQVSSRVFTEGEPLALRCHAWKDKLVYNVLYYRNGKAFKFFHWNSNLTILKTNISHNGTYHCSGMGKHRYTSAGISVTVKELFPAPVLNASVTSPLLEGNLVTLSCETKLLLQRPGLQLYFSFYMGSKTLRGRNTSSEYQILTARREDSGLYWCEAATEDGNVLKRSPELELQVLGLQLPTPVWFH

| Affinity to RI relative to WT [fold lower than WT] | Binder |
| --- | --- |
| > 10 | B1 |
| > 10 | B2 |

Biological target: T1, human FcγRIIβ
Assay: as above

| Kd [nM] | Binder |
| --- | --- |
| 3500 | B1 |
| 3100 | B2 |

Biological target: T1, human FcγRIIβ
Assay: SPR, antibody captured on ProA/G HC30M chip, recombinant human FcγRIIβ injected (4 nM-5 uM); average steady state KD
Method: (§1) Example 52: The binding of anti-FcγRIIβ antibodies to human FcγRIIβ was evaluated. Antibodies were captured on ProA/G HC30M chip at 5 ug/mL, 1 ug/mL, and 0.2 ug/mL for 15 minutes. Six buffer injections were made over the chip followed by injections of increasing concentrations of recombinant human FcγRIIβ (4 nm-5 uM). The association was measured during each injection for 5 minutes and the dissociation was measured for 10 minutes post injection with buffer flow (1×HBSTE+ BSA).

| Kd [nM] | Binder |
| --- | --- |
| 120 | B3 |
| 40 | B4 |

Biological target: PD-1 (in the reporter cells of the PD-1 agonism assay) (Homo sapiens (Human), UniProt Q15116 25-288)
Assay: cell-based or functional assay

Chain of PD-1 (in the reporter cells of the PD-1 agonism assay) (Q15116 25-288 limits assumed): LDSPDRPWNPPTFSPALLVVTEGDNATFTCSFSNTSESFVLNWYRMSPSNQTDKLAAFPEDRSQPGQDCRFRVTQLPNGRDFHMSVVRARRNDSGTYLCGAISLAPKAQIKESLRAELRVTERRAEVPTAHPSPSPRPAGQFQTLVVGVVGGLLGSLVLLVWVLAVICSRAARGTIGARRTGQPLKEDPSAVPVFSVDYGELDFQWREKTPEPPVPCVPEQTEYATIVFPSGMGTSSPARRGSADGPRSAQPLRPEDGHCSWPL

| Emax | log EC50 | Binder |
| --- | --- | --- |
| 2.1 | -8.3 | B1 |
| 2.2 | -8.3 | B2 |

Biological target: T4, FcRN
T4 construct: also called neonatal Fc receptor
Assay: BLI (AHC biosensors by Example 20); table headed FcRN Binding

| Kd [nM] | koff [s⁻¹] | kon [M⁻¹ s⁻¹] | Binder |
| --- | --- | --- | --- |
| 236 | 0.0951 | 403000 | B5 |
| 289 | 0.118 | 407000 | B6 |
| 231 | 0.0788 | 341000 | B7 |
| 273 | 0.103 | 378000 | B8 |
| 250 | 0.1 | 400000 | B9 |

Biological target: T5, Cyno PD-1 (cyno)
T5 construct: also called cynomolgus PD-1; cyPD1
Assay: BLI (Octet RED96), antibody captured on anti-human IgG Fc biosensors, PD-1 titrated; steady state (footnote *)

| Kd [nM] | Binder |
| --- | --- |
| 600 | B2 |

Biological target: T6, Recombinant human PD-1 (human, UniProt Q15116 25-170, limits assumed)
T6 construct: Soluble recombinant analyte in BLI; also called huPD1
Assay: as above

T6 sequence (Q15116 25-170 limits assumed): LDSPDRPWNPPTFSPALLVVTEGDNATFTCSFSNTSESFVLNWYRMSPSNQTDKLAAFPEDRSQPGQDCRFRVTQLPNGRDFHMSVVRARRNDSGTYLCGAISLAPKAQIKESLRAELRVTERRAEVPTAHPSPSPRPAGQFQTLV

| Kd [nM] | Binder |
| --- | --- |
| 1000 | B2 |

Biological target: T2, huFcγRIIβ
Assay: BLI, antibody captured on AHC biosensors, receptor in solution
Method: (§2) Example 19: Anti-FcγRIIβ antibodies were captured on AHC biosensors at a concentration of 5 μg/mL. Antigens (FcγRIIα/FcγRIIβ) were serially diluted two-fold with a starting concentration of 5u M. The biosensors with immobilized antibodies were dipped into the different antigen concentrations and kinetics data were collected.

| Kd [nM] | Binder |
| --- | --- |
| 50.2 | B5 |
| 45 | B6 |
| 122 | B7 |
| 11 | B8 |
| 30.3 | B9 |

Biological target: T3, huFcγRIIα (R131)
Assay: as above
Method: as §2

| Kd [nM] | Binder |
| --- | --- |
| 715 | B5 |
| 141 | B6 |
| 114000 | B7 |
| 623 | B8 |
| 115 | B9 |

Biological target: human FcγRIIIα (human, UniProt P08637 17-208, limits assumed)
Assay: BLI, antibody captured on AHC biosensors, receptor in two-fold dilutions
Method: as §2, with “20:” for “19:”, “(FcγRI or FcγRIIIα)” for “(FcγRIIα/FcγRIIβ)”, “5 μM.” for “5u M.”

Chain of human FcγRIIIα (P08637 17-208 limits assumed): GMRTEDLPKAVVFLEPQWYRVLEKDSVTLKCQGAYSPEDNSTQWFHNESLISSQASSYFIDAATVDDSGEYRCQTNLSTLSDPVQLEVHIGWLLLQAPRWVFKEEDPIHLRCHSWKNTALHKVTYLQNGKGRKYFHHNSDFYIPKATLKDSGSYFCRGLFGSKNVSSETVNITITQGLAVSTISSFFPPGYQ

| Binder | binding result |
| --- | --- |
| B10 | no binding (tested: 5 µM starting concentration) |
| B11 | no binding (tested: 5 µM starting concentration) |
| B12 | no binding (tested: 5 µM starting concentration) |
| B13 | no binding (tested: 5 µM starting concentration) |
| B14 | no binding (tested: 5 µM starting concentration) |

Biological target: human FcγRI (human, UniProt P12314 16-288, limits assumed)
Assay: as above
Method: as §2, with “20:” for “19:”, “(FcγRI or FcγRIIIα)” for “(FcγRIIα/FcγRIIβ)”, “5 μM.” for “5u M.”

Chain of human FcγRI (P12314 16-288 limits assumed): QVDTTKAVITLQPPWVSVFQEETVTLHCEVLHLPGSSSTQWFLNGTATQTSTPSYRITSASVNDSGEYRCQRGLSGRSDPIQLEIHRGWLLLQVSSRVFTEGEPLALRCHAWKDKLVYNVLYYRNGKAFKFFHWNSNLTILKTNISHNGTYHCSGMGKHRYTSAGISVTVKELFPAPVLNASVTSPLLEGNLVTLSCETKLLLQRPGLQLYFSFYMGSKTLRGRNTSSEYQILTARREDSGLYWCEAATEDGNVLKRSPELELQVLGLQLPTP

| Binder | binding result |
| --- | --- |
| B10 | no binding (tested: 5 µM starting concentration) |
| B11 | no binding (tested: 5 µM starting concentration) |
| B12 | no binding (tested: 5 µM starting concentration) |
| B13 | no binding (tested: 5 µM starting concentration) |
| B14 | no binding (tested: 5 µM starting concentration) |

Biological target: T1, human FcγRIIβ
Assay: ratio of KD on FcγRIIα R131 to KD on FcγRIIβ, Table 29

| R131/2b (fold) | Binder |
| --- | --- |
| 9.7 | B1 |

Biological target: T2, huFcγRIIβ
Assay: BLI; ratio of the KD for huFcγRIIα (R131) to the KD for huFcγRIIβ
Method: as §2

| Fold selectivity [fold] | Binder |
| --- | --- |
| 14 | B5 |
| 3 | B6 |
| 934 | B7 |
| 56 | B8 |
| 4 | B9 |

Biological target: T7, CyR2a (monkey)
T7 construct: also called monkey FcγRIIα; Cy FcγRIIα
Assay: SPR, antibody captured on protein A/G chip, receptor injected as analyte
Method: (§3) Example 21: Anti-FcγRIIβ antibodies were captured on protein A/G chips at 10 ug/mL, 1 ug/mL and 0.1 ug/mL concentrations (in duplicates). Each analyte binder was injected at 7 concentrations with 5-fold serial dilutions, with the starting concentration for FcγRs at 5 uM, and for PD-1 at 0.5 uM. […] Kinetics data was subsequently collected.

| Kd [nM] | Binder |
| --- | --- |
| 1120 | B15 |
| 2480 | B5 |
| 2300 | B6 |
| 777 | B7 |

Biological target: huR2a (human, UniProt P12318 36-218)
Assay: as above
Method: as §3

| Kd [nM] | Binder |
| --- | --- |
| 633 | B15 |
| 6510 | B5 |
| 4060 | B6 |
| 6080 | B7 |

Biological target: T2, huFcγRIIβ
Assay: as above
Method: as §3

| Kd [nM] | Binder |
| --- | --- |
| 56.1 | B15 |
| 154 | B5 |
| 299 | B6 |
| 253 | B7 |

Biological target: T8, CyR2b (monkey)
T8 construct: also called monkey FcγRIIβ; Cy FcγRIIβ
Assay: as above
Method: as §3

| Kd [nM] | Binder |
| --- | --- |
| 1210 | B15 |
| 3130 | B5 |
| 3660 | B6 |
| 1500 | B7 |

Biological target: T1, human FcγRIIβ
Assay: SPR, antibody captured on ProA/G HC30M chip, recombinant human FcγRIIβ injected (4 nM-5 uM); average kinetic KD
Method: as §1

| Kd [nM] | Binder |
| --- | --- |
| 120 | B3 |
| 37.3 | B4 |
